Laboratory results from paper PMC4104448.

Target: T1, Biotinylated human β-glucocerebrosidase (residues 40A-536R) (human)
T1 sequence (P04062 whole entry, looked up): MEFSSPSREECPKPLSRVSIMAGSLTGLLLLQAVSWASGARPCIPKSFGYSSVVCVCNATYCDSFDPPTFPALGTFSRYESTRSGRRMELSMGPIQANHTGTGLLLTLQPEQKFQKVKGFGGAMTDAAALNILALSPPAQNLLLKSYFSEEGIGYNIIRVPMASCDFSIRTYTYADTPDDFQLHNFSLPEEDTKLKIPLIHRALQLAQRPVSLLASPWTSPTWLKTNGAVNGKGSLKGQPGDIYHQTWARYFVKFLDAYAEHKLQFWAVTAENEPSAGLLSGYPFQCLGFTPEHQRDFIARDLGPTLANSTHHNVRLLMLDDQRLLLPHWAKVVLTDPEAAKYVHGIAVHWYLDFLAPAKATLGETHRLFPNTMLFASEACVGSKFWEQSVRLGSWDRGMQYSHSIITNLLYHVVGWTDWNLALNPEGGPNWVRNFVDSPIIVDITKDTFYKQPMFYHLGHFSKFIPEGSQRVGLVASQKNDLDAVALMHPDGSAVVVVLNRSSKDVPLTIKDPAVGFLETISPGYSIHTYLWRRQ
Test: SPR; equilibrium binding; about 1,000 RU of biotinylated ligand on a streptavidin-coupled CM5 chip, LIMP-2 as analyte; Biacore T100, 25 °C, 10 mM HEPES pH 7.5, 150 mM NaCl, 0.005% Tween 20; one-site saturation binding model

Kd: 1400 nM
B1: Human LIMP-2 luminal domain (residues 28-431) produced from HEK293S (GnTI-) cells, with limited glycosylation (domain or fragment)
chain: VFQKAVDQSIEKKIVLRNGTEAFDSWEKPPLPVYTQFYFFNVTNPEEILRGETPRVEEVGPYTYRELRNKANIQFGDNGTTISAVSNKAYVFERDQSVGDPKIDLIRTLNIPVLTVIEWSQVHFLREIIEAMLKAYQQKLFVTHTVDELLWGYKDEILSLIHVFRPDISPYFGLFYEKNGTNDGDYVFLTGEDSYLNFTKIVEWNGKTSLDWWITDKCNMINGTDGDSFHPLITKDEVLYVFPSDFCRSVYITFSDYESVQGLPAFRYKVPAEILANTSDNAGFCIPEGNCLGSGVLNVSICKNGAPIIMSFPHFYQADERFVSAIEGMHPNQEDHETFVDINPLTGIILKAAKRFQINIYVKKLDDFVETGDIRTMVFPVMYLNESVHIDKETASRLKSMINT
modifications: N-linked P-Man9GlcNAc2 (with terminal mannose 6-phosphate) at N325; sugars on all nine N-linked glycosylation sites, limited processing
